Consider one sequence from article PMC7942993.

What all share (experiment): EMSA
Holding throughout (conditions): EMSA: 40 mM HEPES pH 7.9, 300 mM KCl, 10% glycerol, 8% Ficoll, 2 mM EDTA, 0.2 mM MgCl2, 1 mM DTT, 600 ug BSA, 30 ug poly(dI-dC), 30 ul, 20 min, room …
On the technique in general: In EMSA bound probe runs differently from free probe, usually more slowly.

For series [1], the target named is T1, His-TRF1 T273D T273D (Homo sapiens) (UniProt P54274).
T1 sequence: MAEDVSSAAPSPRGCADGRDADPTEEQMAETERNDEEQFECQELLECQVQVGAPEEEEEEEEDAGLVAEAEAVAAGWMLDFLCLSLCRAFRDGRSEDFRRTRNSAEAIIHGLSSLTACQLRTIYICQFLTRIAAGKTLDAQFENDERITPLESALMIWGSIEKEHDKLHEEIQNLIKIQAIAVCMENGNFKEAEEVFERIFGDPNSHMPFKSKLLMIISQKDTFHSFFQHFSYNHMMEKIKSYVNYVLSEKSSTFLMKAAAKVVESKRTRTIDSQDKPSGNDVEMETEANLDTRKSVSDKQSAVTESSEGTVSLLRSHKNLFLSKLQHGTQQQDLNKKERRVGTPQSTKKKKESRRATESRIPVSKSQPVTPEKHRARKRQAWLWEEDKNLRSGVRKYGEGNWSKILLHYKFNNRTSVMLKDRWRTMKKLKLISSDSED

Series [2] concerns the target T2, His-TRF1 T358D T358D (Homo sapiens) (UniProt P54274).
T2 sequence: T1 sequence with D273T, T358D

For series [3], the target named is T3, His-TRF1 WT (Homo sapiens) (UniProt P54274).
T3 sequence: T1 sequence with D273T

Numbering of substitutions follows the chain as printed.

For the sequence “GGGTTAGGGTTAGGGTTAGGGTTAGGGTTAGGGTTAGGGTTAGGGCCCCTC (double strand) [ds (TTAGGG)7 telomeric probe]”, the binding signal in series [1] and in series [2] was > 1 fold of WT throughout. In series [3], the binding signal (fold of WT (reference)) was 1.
